{"source": "patent US20240287172A1", "about": "(SCIRHOM, published 2024)", "binders": {"B1": {"name": "antibody 3 (antibody, V domains shown)", "VH": "QVTLKESGPGILQPSQTLSLTCSFSGFSLTTFAMGIGWVRQPSGKGLEWLAHIWWDGEKYNNPVLKSRLTISKDTSKNQVFLRIANVDTPDTATYYCARISSIYYIIDNWGQGTSVTVSS", "VL": "DIVLTQSPATLSVTPGHSVSLSCRASQSISNNLHWYQKKSHESPRLLIKYVSQSISGIPSRFSGSGSGTDFTLSINSVETEDFGMYFCQQSYNWPLTFGAGTKLELK", "notes": "mouse IgG, kappa light chain; also called clone #3; purified antibody 3"}}, "key": {"[1]": {"target": "T1, hiR2-FL-H585A-T7 (human, UniProt Q6PJF5 1-856)", "T1 sequence": "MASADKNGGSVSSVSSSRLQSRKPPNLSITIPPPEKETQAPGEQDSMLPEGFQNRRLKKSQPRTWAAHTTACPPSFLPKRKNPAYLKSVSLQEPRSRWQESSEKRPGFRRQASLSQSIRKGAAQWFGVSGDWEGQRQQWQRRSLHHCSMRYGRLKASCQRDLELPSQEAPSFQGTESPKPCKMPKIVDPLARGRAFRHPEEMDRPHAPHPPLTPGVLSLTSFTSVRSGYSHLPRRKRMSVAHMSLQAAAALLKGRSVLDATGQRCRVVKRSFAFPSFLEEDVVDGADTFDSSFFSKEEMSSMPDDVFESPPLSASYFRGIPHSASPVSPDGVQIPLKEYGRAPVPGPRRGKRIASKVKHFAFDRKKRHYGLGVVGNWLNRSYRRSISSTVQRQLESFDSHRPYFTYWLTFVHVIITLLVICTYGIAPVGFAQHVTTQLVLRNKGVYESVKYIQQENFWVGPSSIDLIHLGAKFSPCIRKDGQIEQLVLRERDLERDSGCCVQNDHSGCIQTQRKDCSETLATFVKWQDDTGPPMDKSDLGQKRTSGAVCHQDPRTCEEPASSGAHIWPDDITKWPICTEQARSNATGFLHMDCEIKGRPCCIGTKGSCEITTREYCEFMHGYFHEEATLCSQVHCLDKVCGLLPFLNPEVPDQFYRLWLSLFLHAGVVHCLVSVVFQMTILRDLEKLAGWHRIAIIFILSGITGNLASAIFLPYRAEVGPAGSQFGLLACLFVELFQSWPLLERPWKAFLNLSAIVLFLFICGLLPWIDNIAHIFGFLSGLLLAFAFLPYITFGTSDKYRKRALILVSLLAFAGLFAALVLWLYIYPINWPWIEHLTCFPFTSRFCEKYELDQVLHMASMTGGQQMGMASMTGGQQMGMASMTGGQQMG", "experiment": "FACS on MEF-DKO cells expressing the variant, 3 µg/ml antibody", "procedure,_shortened": "(§1)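 Pelleted cells are resuspended in antibody at 3 μg/ml and kept on ice 1 hour, washed, then incubated with PE goat anti-mouse IgG F(ab′)2 diluted 1:100 on ice for 1 hour protected from light, washed again and analysed by flow cytometry.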"}, "[2]": {"target": "T2, hiR2-FL-P575A-T7 (human, UniProt Q6PJF5 1-856)", "T2 sequence": "T1 sequence with P575A, A585H", "experiment": "FACS on MEF-DKO cells expressing the variant, 3 µg/ml antibody", "procedure,_shortened": "as §1"}}, "note": "Changes are numbered by the printed parent chain.", "data": [{"binder": "B1", "values": [{"measurement": "loss of binding vs wild type", "setting": "[1]", "result": "≥ 30", "unit": "%"}, {"measurement": "loss of binding vs wild type", "setting": "[2]", "result": "≥ 30", "unit": "%"}]}]}
